# B1: sEGF4–6-hFc (soluble fusion protein comprising SCARF2's EGF4–6 domains, with an N-terminal HA tag and a C-terminal human IgG1 Fc tag) (Fc fusion)
# chain: GSYPYDVPDYAGSSACYCSATSRCDPQTGACLCHAGWWGRSCNNQCACNSSPCEQQSGRCQCRERTFGARCDRYCQCFRGRCHPVDGTCACEPGYRGKYCR
# Target: biotinylated preS1 peptide 79–108 carrying 89D and 90K (hepatitis B virus (residues numbered …, biotin (position not stated for this peptide)))
# Experiment: pull-down; 2 µM biotinylated preS1 peptide on Dynabeads MyOne Streptavidin T1, incubated with 2 µg purified protein 1 h at 37°C, washed with PBS 0.01% Tween 20, Western blot (anti-HA or anti-human IgG1); the paper calls it immunoprecipitation (IP-Western)
# Details: both partners purified
binder,measurement,value
B1,fold efficiency of precipitation against preS1 79–108 QT and QS peptides,~2 fold
